Experiments:
[1] = molecular target: T1, BACE2 (Homo sapiens, UniProt Q9Y5Z0); assay: SPR analysis, BACE2; format: binding
T1 sequence (Q9Y5Z0 63-518): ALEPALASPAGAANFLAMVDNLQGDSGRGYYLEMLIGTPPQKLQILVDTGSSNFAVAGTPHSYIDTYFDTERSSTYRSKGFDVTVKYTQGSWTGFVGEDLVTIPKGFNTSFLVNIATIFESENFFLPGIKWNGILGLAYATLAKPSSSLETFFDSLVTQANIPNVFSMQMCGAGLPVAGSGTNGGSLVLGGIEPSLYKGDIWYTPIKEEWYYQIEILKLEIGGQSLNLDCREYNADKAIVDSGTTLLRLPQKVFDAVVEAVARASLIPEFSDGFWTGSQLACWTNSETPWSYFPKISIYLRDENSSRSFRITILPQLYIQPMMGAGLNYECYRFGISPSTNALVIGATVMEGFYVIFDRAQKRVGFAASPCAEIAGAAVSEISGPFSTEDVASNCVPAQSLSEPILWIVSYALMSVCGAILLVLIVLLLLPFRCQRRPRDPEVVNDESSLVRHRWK
Experimental: Further characterization of this antibody was performed to better understand its function.

[2] = Serum PK in BALB/C and BACE1 knock-out mice; format: in vivo, mouse
Experimental: Additionally, PK data was obtained after dosing with YW412.8.31 anti-BACE1 antibody in wild-type and BACE1 knock-out mice. A single dose of anti-BACE1 (1 or 10 mg/kg) was delivered via IV injection to BALB/C mice. Serum PK was analyzed out to 21 days post-dose.
Total anti-BACE1 antibody concentrations in mouse serum and brain samples were measured as follows. Antibody concentrations in mouse serum and brain samples were measured using an enzyme-linked immunosorbent assay (ELISA). NUNC 384 well Maxisorp immunoplates (Neptune, N.J.) were coated with F(ab′)2 fragment of donkey anti-human IgG, Fc fragment specific polyclonal antibody (Jackson ImmunoResearch, West Grove, Pa.) overnight at 4° C. Plates were blocked with phosphate-buffered saline (PBS) containing 0.5% bovine serum albumin (BSA) for 1 hour at room temperature the next day. Each antibody (Control IgG and anti-BACE1) was used as a standard to quantify the respective antibody concentrations. […] Bound antibody was detected with horseradish peroxidase conjugated F(ab′)2 goat anti-human IgG, Fc specific polyclonal antibody (Jackson ImmunoResearch). […] Absorbance was measured at a wavelength of 450 nm with a reference of 630 nm on a Multiskan Ascent reader (Thermo Scientific, Hudson, N.H.). Concentrations were determined from the standard curve using a four-parameter non-linear regression program. […]

[3] = molecular target: BACE1 (Homo sapiens, UniProt P56817); assay: HTRF BACE1 enzyme activity assay (long peptide Bi27); format: biochemical; conditions: IgG, long peptide substrate
Experimental: The HTRF assay was performed as follows. […] The proteolytic reaction mixture was incubated at ambient temperature for 75 minutes and was quenched by the addition of 5 μL HTRF detection mixture containing 2 nM Streptavidin-D2 and 150 nM of 6E10 anti-amyloid beta antibody (Covance, Emoryville, Calif.) labeled with Europium cryptate in detection buffer (200 mM Tris pH 8.0, 20 mM EDTA, 0.1% BSA, and 0.8M KF). The final reaction mixture was incubated at ambient temperature for 60 minutes and the TR-FRET signal was measured using an EnVision Multilabel Plate Reader™ (Perkin-Elmer) at an excitation wavelength of 320 nm and emission wavelengths of 615 and 665 nm. Reactions lacking BACE1 enzyme (0 BACE) and reactions containing lacking anti-BACE1 antibodies (PBS (100% BACE1 Activity) were used as controls.
Fab proteins of 6 clones were purified and subjected for HTRF enzyme activity assay, as described above.
The affinity matured YW412.8.31 anti-BACE1 antibody was tested in a HTRF assay as described in Example 1. […] Additionally, reactions using a short FRET peptide (Rh-[…]-quencher (SEQ ID NO:54), Invitrogen) were also performed identically to the HTRF reactions. The resulting fluorogenic products from the control reactions were measured as above, but at an excitation wavelength of 545 nm and an emission wavelength of 585 nm. Obtained data were analyzed using GraphPad Prism 5™ (LaJolla, Calif.).

Sequence of BACE1 (P56817 22-457): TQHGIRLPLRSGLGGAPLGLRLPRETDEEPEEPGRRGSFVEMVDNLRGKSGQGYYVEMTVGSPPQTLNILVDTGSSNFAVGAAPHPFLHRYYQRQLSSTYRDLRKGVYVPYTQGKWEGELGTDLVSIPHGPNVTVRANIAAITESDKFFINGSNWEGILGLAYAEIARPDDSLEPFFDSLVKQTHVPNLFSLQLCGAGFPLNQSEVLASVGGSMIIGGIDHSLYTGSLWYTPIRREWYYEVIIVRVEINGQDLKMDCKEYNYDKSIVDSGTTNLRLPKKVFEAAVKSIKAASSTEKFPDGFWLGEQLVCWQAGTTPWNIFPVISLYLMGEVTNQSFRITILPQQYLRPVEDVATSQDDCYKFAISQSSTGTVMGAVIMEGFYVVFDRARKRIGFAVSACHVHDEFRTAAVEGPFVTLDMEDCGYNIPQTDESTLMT

B1: YW412.8.31: affinity matured form of YW412.8 anti-BACE1 antibody (antibody, V domains shown)
VH: EVQLVESGGGLVQPGGSLRLSCAASGFTFLGYGIHWVRQAPGKGLEWVGWISPAGGSTDYADSVKGRFTISADTSKNTAYLQMNSLRAEDTAVYYCARGPFSPWVMDYWGQGTLVTVSS
VL: DIQMTQSPSSLSASVGDRVTITCRASQDVSTAVAWYQQKPGKAPKLLIYSASFLYSGVPSRFSGSGSGTDFTLTISSLQPEDFATYYCQQFPTYLPTFGQGTKVEIK
In the case of B1, the “binding to BACE2” value [1] is reported as “does not bind”, the “serum PK kinetics” value ([2]; 1 or 10 mg/kg single IV, BALB/C mice, to 21 days) is reported as “non-linear” and the “serum PK kinetics” value ([2]; single dose, BACE1−/− mice) is reported as “linear PK”. For the same molecule, the maximal inhibition [3] was 77%.
